Measurements reported in patent publication US9090549B2, “1,4-naphthoquinones derivatives and therapeutic use thereof” (CENTRE NATIONAL DE LA RECHERCHE SCIENTIFIQUE (C.N.R.S.), priority 2008, dated 2015).

Substrate: CC1=C(C(=O)c2ccc(Br)cc2)C(=O)C2C=CC=CC2C1=O
Assay: 1,4-Naphthoquinone reductase activity of P. falciparum glutathione reductase
Type: biochemical, Plasmodium falciparum
Conditions: other: pH 6.9, 100 μM NADPH, 1% DMSO
Description: The reduction assay mixture consisted of 100 mM potassium phosphate buffer pH 6.9, 200 mM KCl, 1 mM EDTA and 100 μM NADPH in a total volume of 1 mL. 1,4-naphthoquinone reductase activity was determined by recording the initial velocities in the presence of increasing naphthoquinone concentrations (0-300 μM). The 1,4-naphthoquinone was first dissolved in DMSO, and a final 1% DMSO concentration was kept constant in the 1,4-naphthoquinone reductase assay. For the determination of KM and Vmax values, the steady-state rates were fitted by using nonlinear regression analysis software (Kaleidagraph) to the Michaelis-Menten equation. From these values, the turnover number kcat and the catalytic efficiency kcat/KM were calculated.

B1: P. falciparum glutathione reductase (PfGR) (Plasmodium falciparum K1) (protein)
chain: VYDLIVIGGGSGGMAAARRAARHNAKVALVEKSRLGGTCVNVGCVPKKIMFNAASVHDILENSRHYGFDTKFSFNLPLLVERRDKYIQRLNNIYRQNLSKDKVDLYEGTASFLSENRILIKGTKDNNNKDNGPLNEEILEGRNILIAVGNKPVFPPVKGIENTISSDEFFNIKESKKIGIVGSGYIAVELINVIKRLGIDSYIFARGNRILRKFDESVINVLENDMKKNNINIVTFADVVEIKKVSDKNLSIHLSDGRIYEHFDHVIYCVGRSPDTENLKLEKLNVETNNNYIVVDENQRTSVNNIYAVGDCCMVKKSKEIEDLNLLKLYNEERYLNKKENVTEDIFYNVQLTPVAINAGRLLADRLFLKKTRKTNYKLIPTVIFSHPPIGTIGLSEEAAIQIYGKENVKIYESKFTNLFFSVYDIEPELKEKTYLKLVCVGKDELIKGLHIIGLNADEIVQGFAVALKMNATKKDFDETIPIHPTAAEEFLTLQPWMK
Protein B1 has a Km of 6.1 µM.
